Measured values taken from patent US20260250410A1 (SICHUAN HUIYU PHARMACEUTICAL, published 2026).

T1: human CDCP1 on tumor cells (human, UniProt Q9H5V8 30-836)
T1 construct: whole, on cells; cell line is named under assay or readout
T1 sequence (looked up): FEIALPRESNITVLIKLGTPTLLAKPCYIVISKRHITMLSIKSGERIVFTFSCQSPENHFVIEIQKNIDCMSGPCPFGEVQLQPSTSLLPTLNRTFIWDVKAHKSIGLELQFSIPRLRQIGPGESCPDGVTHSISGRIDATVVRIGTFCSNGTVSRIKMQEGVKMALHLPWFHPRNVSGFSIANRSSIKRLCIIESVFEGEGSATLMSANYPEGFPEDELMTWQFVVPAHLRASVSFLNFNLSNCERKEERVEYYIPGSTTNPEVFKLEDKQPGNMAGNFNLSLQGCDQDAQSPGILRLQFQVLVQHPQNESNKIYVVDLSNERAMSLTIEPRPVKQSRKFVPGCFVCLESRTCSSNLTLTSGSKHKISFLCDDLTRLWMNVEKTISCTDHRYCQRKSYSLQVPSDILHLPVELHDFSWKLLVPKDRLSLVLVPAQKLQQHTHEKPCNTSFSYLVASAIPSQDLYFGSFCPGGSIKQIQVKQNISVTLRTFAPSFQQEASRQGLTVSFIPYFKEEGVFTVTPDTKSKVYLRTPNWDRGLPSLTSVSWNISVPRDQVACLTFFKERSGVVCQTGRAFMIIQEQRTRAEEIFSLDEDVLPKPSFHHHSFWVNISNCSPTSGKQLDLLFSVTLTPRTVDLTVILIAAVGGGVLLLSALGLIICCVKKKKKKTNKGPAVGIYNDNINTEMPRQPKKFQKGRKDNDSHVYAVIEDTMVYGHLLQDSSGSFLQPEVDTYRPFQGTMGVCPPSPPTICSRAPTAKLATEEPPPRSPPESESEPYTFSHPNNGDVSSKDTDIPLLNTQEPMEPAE

T2: HuCDCP1-B (human, UniProt Q9H5V8 343-667)
T2 construct: range 343-667; expressed in HEK-293T, purified by Fc/his tag; also called human CDCP1-B; membrane-proximal region of CDCP1; not shown: Fc or his tag
T2 sequence (looked up): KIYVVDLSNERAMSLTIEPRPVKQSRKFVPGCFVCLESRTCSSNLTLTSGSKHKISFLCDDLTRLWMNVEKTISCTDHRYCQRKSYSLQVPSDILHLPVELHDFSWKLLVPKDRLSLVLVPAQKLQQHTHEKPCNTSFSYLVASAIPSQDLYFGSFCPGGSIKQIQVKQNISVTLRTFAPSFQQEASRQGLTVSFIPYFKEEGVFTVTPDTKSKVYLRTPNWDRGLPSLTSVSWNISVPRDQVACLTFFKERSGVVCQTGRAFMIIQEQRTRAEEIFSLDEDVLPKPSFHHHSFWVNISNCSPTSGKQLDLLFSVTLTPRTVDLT

T3: HuCDCP1-C (human, UniProt Q9H5V8 30-667)
T3 construct: range 30-667; expressed in HEK-293T, purified by Fc/his tag; also called human CDCP1-C; full-length extracellular domain of human CDCP1; not shown: Fc or his tag
T3 sequence (looked up): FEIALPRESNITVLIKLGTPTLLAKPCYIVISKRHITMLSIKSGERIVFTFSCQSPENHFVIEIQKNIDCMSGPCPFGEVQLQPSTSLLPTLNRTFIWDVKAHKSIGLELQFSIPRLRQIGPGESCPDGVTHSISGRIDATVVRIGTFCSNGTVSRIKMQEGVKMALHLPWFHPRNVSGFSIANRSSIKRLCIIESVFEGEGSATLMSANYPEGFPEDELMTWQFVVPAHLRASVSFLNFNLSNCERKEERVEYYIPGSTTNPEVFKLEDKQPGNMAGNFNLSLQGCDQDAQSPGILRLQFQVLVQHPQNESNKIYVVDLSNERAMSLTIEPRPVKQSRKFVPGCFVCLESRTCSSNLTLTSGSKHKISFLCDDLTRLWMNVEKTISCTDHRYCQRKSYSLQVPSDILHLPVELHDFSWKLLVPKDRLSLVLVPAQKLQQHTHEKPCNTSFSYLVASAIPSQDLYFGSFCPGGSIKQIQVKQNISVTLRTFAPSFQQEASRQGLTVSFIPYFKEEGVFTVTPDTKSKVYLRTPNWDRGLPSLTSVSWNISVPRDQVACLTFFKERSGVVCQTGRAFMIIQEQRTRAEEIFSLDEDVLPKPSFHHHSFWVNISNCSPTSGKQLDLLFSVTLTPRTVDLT

T4: huCDCP1-his (human, UniProt Q9H5V8 30-667, limits assumed)
T4 construct: also called human CDCP1 antigen; not shown: his tag
T4 sequence (looked up): T3 sequence (looked up)

B1: SB8 (antibody, V domains shown)
VH: QVTLKESGPGILKPSQTLSLTCSFSGFSLSTSGVGVGWIRQPSGKGLEWLAHIWWDDEKYYNPSLKSHFTISKDTSRNQVFLKITSVDTADTATYYCVKEGDGMDYWGQGTSVTVSS
VL: QAVVTQESALTTSPGETVTLTCRSSTGAVATSNYANWVQEKPDHLFTGLIGGTNNRVPGVPARFSGSLIGDKAALTITGAQTEDEAIYFCALWYSNHWVFGGGTKLTVL
notes: single B cell antibody, expressed in CHO
B2: SB9 (antibody, V domains shown)
VH: DVKLVESGGGLVKPGGSLKLSCAASGFTFSSFTMSWVRQTPEKRLEWVATISSSGSYTYYPDSVKGRFTISRDNAKNTLYLQMSSLKSEDTAMYYCTSPDYYGRSYGYFDYWGQGTTLTVSS
VL: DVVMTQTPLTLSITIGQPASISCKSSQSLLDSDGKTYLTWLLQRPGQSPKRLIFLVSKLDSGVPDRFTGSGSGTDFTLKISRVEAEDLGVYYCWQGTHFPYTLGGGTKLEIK
notes: as for B1
B3: 1CP-152-MMAE (antibody, human IgG1, kappa, V domains shown)
VH: EVQLVESGGGLVQPGRSLRLSCTTSGLTFTHYHMSWVRQAPGKGLEWVAIIRNKAYGYTTDYSASVRGRFTISRDDSKSILYLQMNSLKTEDTAVYYCVREGGYGYDGTFAYWGQGTLVTVSS
VL: DIQMTQSPSSLSASVGDRVTITCRASESVDNYGISFMNWFQQKPGQAPKLLIYAASNQGSGVPSRFSGSGSGTDFTLTISSMQPEDFATYYCQQSKEVPRTFGGGTKVEIKR
modifications: vc-MMAE coupled after reduction, sites not stated; DAR 4.5
B4: SB5 (antibody, V domains shown)
VH: QVQLRESGPGLVAPSQSLSITCTVSGFSLTDFGVNWVRQPPGKGLEWLGIIWANGRIEYNSALKSRLSISKDNSRSQVFLKLNSLQTDDTARYYCARDHDYDVEAMDYWGQGTSVTVSA
VL: QIVLTQSPAIKSASPGEKVTMTCSASSSVIYMHWYQQKSGSSPKRWIYDTSKLASGVPVRFSGSGSGTSYSLTISTMEAEDAATYYCQQWSSYPPTFGGGTKVEIK
notes: as for B1
B5: 1CP-117-MMAE (antibody, human IgG1, kappa, V domains shown)
VH: QVQLVQSGSELKKPGASVKVSCKASGYTLTDFSMHWVRQAPGQGLEWMGWINTETGAPTYADDFKGRFVLSLDTSVSTAYLQISSLKAEDTAVYYCSRGRDYDPHFDYWGQGTLVTVSS
VL: EIVLTQSPATLSLSPGERATLSCRASQSISDFLHWYQQKPGQSPRLLIKYASQSISGIPARFSGSGSGSDFTLTISSVEPEDFAVYYCQSAHSFPYTFGQGTKLEIKR
modifications: vc-MMAE coupled after reduction, sites not stated; DAR 4.8

What was measured:
[1] = target: T1, human CDCP1 on tumor cells; test: flow cytometry, MDA-MB-231 cells, 1.5 µg/ml
Experimental: Flow cytometry was used to detect the binding capacity of antibody to tumor cells. MDA-MB-231 cells were subjected to digestion with 5 mM EDTA, centrifuged, and counted, the cells were resuspended with FACS buffer (PBS+2% FBS). Cell density was adjusted to 4×10⁵/ml, 50 μL (2×10⁴ tumor cells) were added per well, an Fc blocker (Human TruStain FcX™, Biolegend, 422302) was added for blocking at room temperature for 10 mins, then the antibody to be tested was added at a final concentration of 1.5 μg/ml. The mixture was incubated out at 4° C. for 30 mins, centrifuged and washed, a secondary antibody (PE anti-human IgG Fc Antibody, Biolegend, 410708) was added for incubation, and then detection was performed using a flow cytometer. Geo-MFI was used as the preliminary criterion for determining antibody-cell binding.

[2] = target: T1, human CDCP1 on tumor cells; test: cell-based or functional assay
[3] = target: T1, human CDCP1 on tumor cells; test: cell-based or functional assay; remark: listed apart in the source
HuCDCP1-B = target: T2, HuCDCP1-B; test: ELISA, coated antigen
Experimental: (§1) The candidate antibodies obtained from Example 6 were subjected to gene cloning, constructed into an expression vector for a small amount of expression in CHO cells, and purified with an Fc affinity column (AT Protein A Diamond Plus. No. AA402312). Antibody purity was analyzed by HPLC and determined by Nanodrop. High-throughput affinity assay was carried out for a small amount of antibodies by Caterra. […] At the same time, 2 μg/ml antigen human CDCP1-C and 2 μg/ml human CDCP1-B were used for coating, and the antigen-antibody binding capacity was tested by ELISA for verification.

HuCDCP1-C = target: T3, HuCDCP1-C; test: ELISA, coated antigen
Experimental: as §1

huCDCP1-his = target: T4, huCDCP1-his; test: SPR (Caterra), antigen immobilized
Experimental: as §1

Binder	binding result [1]	IC50 (nM), killing of HCC1806 cells (120 h), CellTiter-Glo [2]	IC50 (nM), killing of HCT116 cells (120 h), CellTiter-Glo [3]	further results
B1	binds			
B2	binds			
B3		0.734 nM	1.27 nM	
B4				EC50 (HuCDCP1-B): 208 pM; EC50 (HuCDCP1-C): 413 pM; Kd (huCDCP1-his): 835 pM
B5		0.894 nM	1.51 nM	
